Results published in US20110009597A1, “RECOMBINANT GANODERMA LUCIDIUM IMMUNOMODULATORY PROTEIN (rLZ-8) AND USES THEREOF” (priority 2008, published 2011).

Columns and labels:
[1] = system: Mouse hepatoma cell strain H22; assay: H22 subcutaneous tumor inhibition experiment; assay type: in vivo, Mice; settings: 10 days
Protocol: Mice, weight 18-22g, males and females were divided equally, from Jilin University Laboratory Animal Center. Mouse hepatoma cell strain H22, offered by our laboratory. Cyclophosphamide (CTX), offered by Jiangsu Hengrui Medicine Co., Ltd., lot number: 06101921.
H22 hepatoma cells experiment group were divided into normal control group, negative control group, positive control group, rLZ-8 low-dose treatment group (0.25 mg·kg^−1), rLZ-8 medium-dose treatment group (0.5 mg·kg^−1), rLZ-8 high-dose treatment group (1 mg·kg^−1). For each group 10 mice.
H22 subcutaneous tumor tumor inhibition experiment methods: Select well-growing 1-122 cells, dilute appropriately with sterile saline into a tumor cell suspension, cell counts for 10^7·L^−1, under the right armpit of each mouse inoculated subcutaneously 0.2 ml (except for the normal control group). Treatment after 24 h of vaccination. Normal control group and negative control group were given saline 0.2 ml·each^−1·d^−1, intraperitoneal injection; positive control group were given cyclophosphamide 20 mg·kg^−1, 0.2 ml·each^−1·d^−1, intraperitoneal injection. rLZ-8 treatment groups were given doses of tail venous injection respectively, 0.2 ml·each^−1·d^−1, in 10 consecutive days. Draw blood from orbital venous plexus 10 days before and after medication respectively, sent to Jilin University No. 1 Hospital clinical laboratory to test and analyze the number of WBC. Kill all the mice the next day of drug withdrawal at cervical dislocation, dissected anatomically and took out the tumors, weigh tumors, calculated the inhibition rate using the following equation:
Inhibition rate (%)=(average tumore weight of the control group−average tumor weight of the experiment group)/average tumor weight of the control group×100%

[2] = system: systemic allergic reaction caused by BSA; assay: Systemic allergic reaction in mice caused by BSA; settings: for Death number/total / Sensitization number/total: sensitization BSA (i.p.)
[3] = system: human red blood cells (A, B, O and AB blood type); assay: Red blood cell agglutination, human; assay type: cell-based
Protocol: A, B, O and AB blood type, from the healthy volunteers 2 ml respectively, SRBC (sheep red cell) 2 ml. Centrifuge the above RBC 1200 g·min^−1 for 10 min, clears the supernatant and wash with 5 ml PBS, repeat the above operation 3-5 times, and then uses 0.01 mol/L PBS suspension preparation of 1.5%. Prepare rLZ-8 with normal saline to final concentrations of 50 μg·ml^−1, 25 μg·ml^−1, 12.5 μg·ml^−1, 6.25 μg·ml^−1, 1.56 μg·ml^−1, 0.78 μg·ml^−1, 0.39 μg·ml^−1, 0.20 μg·ml^−1, 0.10 μg·ml^−1, 0.05 μg·ml^−1, 0.03 μg·ml^−1. Plant agglutinin (PHA) preparation Ibid.
Divide experiment subjects into rLZ-8 concentration groups, positive drug control, and normal control group.
On 96-orifice Hemagglutination board, we add A-type 1.5%, erythrocyte 25 μl/hole, and then add 0.2% gelatin, 75 μl/hole. Drug groups are added different concentrations of rLZ-8, till the final concentration as above-noted; positive drug control group PHA 25 μl/hole; normal control group PBS25μl/hole. 6 parallel control groups in each group. Shaking for 30 s under normal room temperature, 37° C. incubation, observe the subjects 1 h later. For B-type, AB-type, O-type, the same experiment methods are as SRBC (sheep red cell) above.

NB4 = assay: Annexin V-FITC flow cytometry, apoptosis of NB4; assay type: cell-based; settings: Annexin V/PI
Protocol: FACS Calibur flow cytometry, U.S. Becton-Dickinson.Coompany. NB4, HL-60. rLZ-8 is prepared with IMDM culture medium containing 2% FCS into the preparation of 0.1 μg·ml^−1, 0.5 μg·ml^−1, 2.5 μg·ml^−1, arsenic trioxide (As2O3) 0.5 μg·ml^−1 AnnexinV-FITC kit: combining buffer solution 4×; Propidium iodide solution (PI), 20 μg·ml−1, 0.2 ml; recombinant human Annexin V/FITC, 0.1 ml.
Establish NB4 normal control group, positive drug group (As2O3 0.5 μg·ml^−1), protein low-dose group (0.1 μg·ml^−1), medium-dose group (0.5 μg·ml^−1), high-dose group, (2.5 μg·ml^−1); establish HL-60 normal control group, protein low-dose group (0.1 μg·ml^−1), medium-dose group (0.5 μg·ml^−1), high-dose group, (2.5 μg·ml^−1).
Mix NB4 and HL-60 cell into 24-orifice plate respectively, 1 ml/hole supply rLZ-8 in different concentrates, set 3-orifice multipunches for each group. Put them in 37° C., 5% CO2 incubator for 24 h, collect the cells of each concentrate, washes the cells twice with pre-cooled PBS 4° C., with 250 μl binding buffer solution re-suspending cells and regulates the cell density to 1×10^6/ml, taking out 100 μl to 5 ml streaming tube, and add 5 μl Annexin V/FITC and 10 μl 20 μg·ml^−1 PI solution, after mixing put it in room temperature and lucifuged hatching 15 min, add 400 μl PBS by flow cytometry analysis.

WBC = assay: Treatment of radiation leucopenia model of mice, WBC; assay type: in vivo; design: unit not given here; settings: 7.5 Gy γ-ray
Protocol: rLZ-8 preparation of sterile saline. Divide them into 5 ∞g·kg^−1, 2.5 μg·kg^−1, 1.25 μg·kg^−1, 0.62 μg·kg^−1 dose groups. 0.2 ml/vial.
Genlei™ Scimax™ [Recombinant human granulocyte colony-stimulating factor injection (rhG-CSF)], production lot: 20060403; 150m/vial is prepared with sterile normal saline into the preparation of 3.2 μg·kg^−1, 0.2 ml/vial.
The mice were irradiated by 7.5 Gy γ-ray (180 mV, 15 mA) and then divided into seven groups (n=10): (A) negative control; (B) 5 μg·kg−1 dose; (C) 2.5 μg·kg−1 dose; (D) 1.25 μg·kg−1 dose; (E) 0.62 μg·kg−1 dose; (F) positive control (Genlei™ Scimax™); (G) model group. Together with modeling, mice in each group were administered with Genlei™ Scimax™ and rLZ-8 for 9 days, drew blood from tail, tested the number of WBC, weight spleen, calculated index of spleen.

[4] = rLZ-8 0.25 mg·kg^−1 tail venous injection
[5] = rLZ-8 0.5 mg·kg^−1 tail venous injection
[6] = rLZ-8 1 mg·kg^−1 tail venous injection
[7] = rLZ-8 dose 2, shock BSA-rLZ-8 (i.v.)

B1: rLZ-8: Recombinant Ganoderma Lucidum Immune Regulatory Protein expressed in Pichia pastoris (protein, UniProt P14945 2-111, looked up)
Immunomodulatory protein Ling …: SDTALIFRLAWDVKKLSFDYTPNWGRGNPNNFIDTVTFPKVLTDKAYTYRVAVSGRNLGVKPSYAVESDGSQKVNFLEYNSGYGIADTNTIQVFVVDPDTNNDFIIAQWN
Inhibition rate (%) [1, 4]: 16.7% | Tumor weight [1, 4]: 1.00 ± 0.03 g | Inhibition rate (%) [1, 5]: 30.0% | Tumor weight [1, 5]: 0.84 ± 0.02 g | Inhibition rate (%) [1, 6]: 42.5% | Tumor weight [1, 6]: 0.69 ± 0.03 g | systemic allergic reaction caused by BSA (in words) ([2]; mouse, in vivo): could inhibit systemic allergic reaction | Death number/total ([2]; rLZ-8 dose 1, shock BSA (i.v.)): 0/10 | Sensitization number/total ([2]; rLZ-8 dose 1, shock BSA (i.v.)): 5/10 | Death number/total [2, 7]: 0/10 | Sensitization number/total [2, 7]: 9/10 | agglutination of four types of human red blood cells (in words) [3]: not agglutinative | Apoptosis rate (NB4; NB4, rLZ-8 0.1 μg·ml−1, 24 h): 21.0% | Apoptosis rate (NB4; NB4, rLZ-8 0.5 μg·ml−1, 24 h): 22.3% | Apoptosis rate (NB4; NB4, rLZ-8 2.5 μg·ml−1, 24 h): 34.0% | WBC, 5th day (WBC; rLZ-8 0.62 μg·kg^−1): 0.73 ± 0.43 | WBC, 7th day (WBC; rLZ-8 0.62 μg·kg^−1): 0.26 ± 0.43 | WBC, 9th day (WBC; rLZ-8 0.62 μg·kg^−1): 0.64 ± 0.01 | WBC, 5th day (WBC; rLZ-8 1.25 μg·kg^−1): 0.82 ± 0.45 | WBC, 7th day (WBC; rLZ-8 1.25 μg·kg^−1): 0.65 ± 0.45 | WBC, 9th day (WBC; rLZ-8 1.25 μg·kg^−1): 0.70 ± 0.12 | WBC, 5th day (WBC; rLZ-8 2.50 μg·kg^−1): 0.69 ± 0.54 | WBC, 7th day (WBC; rLZ-8 2.50 μg·kg^−1): 0.56 ± 0.54 | WBC, 9th day (WBC; rLZ-8 2.50 μg·kg^−1): 0.54 ± 0.13 | WBC, 5th day (WBC; rLZ-8 5 μg·kg^−1): 0.84 ± 0.32 | WBC, 7th day (WBC; rLZ-8 5 μg·kg^−1): 0.31 ± 0.32 | WBC, 9th day (WBC; rLZ-8 5 μg·kg^−1): 0.90 ± 0.14
